Results reported in the supplement of paper PMC9732359.
± gives the uncertainty stated by the source.

Assay: protein stability index of a GFP-peptide fusion (yeast GPS) (PSI 1-4); higher = more stable; sorted into four equal gates, so the index is relative within each strain
How it was run: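 For each peptide, the protein stability index sums the read frequency in every gate after multiplying it by the gate number. Read frequencies came from plasmids that were PCR-amplified from each gate and Illumina-sequenced, with reads assigned to strains by barcodes. The gates were four equal bins of GFP/Cherry fluorescence ratio applied to mid-log yeast in leucine-free medium carrying a pooled library of tiled 17-residue yeast protein peptides fused downstream of GFP on a Cherry-expressing plasmid.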

Sequence	protein stability index (doa10∆)	protein stability index (pdr5∆)	protein stability index (san1∆)	protein stability index (ubr1∆)
RYVNLLGVTYSSPTLAT [PRE4]	1.12 ± 0.11	1.35 ± 0.13	1.47 ± 0.17	1.1 ± 0.12
SAASKKKKNKNKGKKKR [SRP21]	3.22 ± 0.081	3.04 ± 0.1	3.11 ± 0.056	3.22 ± 0.056
SADCELLGIDATVPSGR [RPO31]	–	3.06 ± 0.18	–	3.32 ± 0.081
SAEDQLYAITFRKGLGN [QCR2]	3.06 ± 0.12	3.14 ± 0.16	2.96 ± 0.2	3.03 ± 0.17
SAEEQLRKIDMLQKKLV [SRB7]	2.64 ± 0.09	2.58 ± 0.065	1.88 ± 0.097	2.62 ± 0.043
SAFACKTDEVIILGTNL [BRR2]	2.86 ± 0.054	3 ± 0.043	2.94 ± 0.04	2.9 ± 0.035
SAGLFGSKPAGGTSLFG [YGL172W/NUP49]	2.6 ± 0.081	2.9 ± 0.1	2.27 ± 0.098	2.66 ± 0.047
SAGRIESNNPSHDASRS [SIR4]	2.85 ± 0.21	2.3 ± 0.11	–	2.98 ± 0.17
SAIDEEIEELIDSINGP [SMC3]	3.29 ± 0.14	3.24 ± 0.17	3.08 ± 0.17	2.42 ± 0.24
SAIIENAFRKEELLLKD [GAL11]	–	1.14 ± 0.16	–	1.18 ± 0.22
SAIRQVFERFKTKILEV [IRR1]	1.87 ± 0.045	2.03 ± 0.06	1.71 ± 0.07	2.26 ± 0.05
SAISVTNVEDPLAKKQT [SIR2]	–	–	–	3.2 ± 0.21
SANERLFGNRPSMMAPL [YML031W/NDC1]	2.96 ± 0.21	2.63 ± 0.13	2.62 ± 0.12	3.03 ± 0.089
SAPIYVDIEYTRGRNII [RET1]	2.42 ± 0.11	2.51 ± 0.12	2.88 ± 0.064	2.86 ± 0.1
SAQAETEALLLEHDVEY [DIS3]	3.19 ± 0.087	3.22 ± 0.098	3.3 ± 0.095	3.15 ± 0.066
SAQQNLASSFVNGFLNL [RPN1]	2.73 ± 0.094	2.54 ± 0.067	3.1 ± 0.059	2.75 ± 0.068
SASLKKIQQHNTILNSS [BRR2]	2.65 ± 0.052	2.93 ± 0.055	2.79 ± 0.032	2.81 ± 0.041
SATVKTSDLLGSHLSET [ECM29]	2.67 ± 0.071	2.98 ± 0.085	2.94 ± 0.095	2.86 ± 0.076
SAWIWPMDEETKLYFDV [RPC25]	2.17 ± 0.075	2.4 ± 0.11	2.49 ± 0.092	2.41 ± 0.15
SAYVKAFYQKGNKLVEL [SMC1]	1.45 ± 0.074	1.99 ± 0.051	2.12 ± 0.097	1.58 ± 0.052
SDAEEEEGEYKNAANTE [ISW2]	3.06 ± 0.14	3.44 ± 0.14	3 ± 0.17	3.3 ± 0.093
SDDKTRQLSPHTLMSFA [PRE1]	1.83 ± 0.046	2.12 ± 0.05	2.26 ± 0.082	2.18 ± 0.038
SDEERDDEDDEHNPTIV [AAR2]	3.53 ± 0.086	3.32 ± 0.089	3.09 ± 0.071	3.31 ± 0.11
SDERAKLELINRYAYVL [LRP1]	2.55 ± 0.067	3.17 ± 0.16	2.79 ± 0.11	2.93 ± 0.15
SDLVNQGIIYAKVNRPA [RPN5]	2.97 ± 0.15	3.66 ± 0.26	2.84 ± 0.17	–
SDNKKRSGSNAAASLPS [RPC82]	2.89 ± 0.058	3.19 ± 0.06	2.86 ± 0.042	3 ± 0.038

Sequence	protein stability index (doa10∆)	protein stability index (pdr5∆)	protein stability index (san1∆)	protein stability index (ubr1∆)
SDPMLQRTATLCLEKLM [YCS4]	1.47 ± 0.21	–	–	1.14 ± 0.17
SEAEYSKDIETLKKEWL [YIL149C/MLP2]	3.26 ± 0.083	3.04 ± 0.085	3.13 ± 0.051	3 ± 0.049
SEGISEATREVFGISKT [ITC1]	–	3.42 ± 0.16	–	3.28 ± 0.2
SEHFLYLAKELNLTGPK [RPN1]	2.98 ± 0.13	2.81 ± 0.15	2.35 ± 0.19	2.98 ± 0.29
SEINEILARNDEEMAVL [SNF2]	2.88 ± 0.18	2.64 ± 0.21	3 ± 0.17	3.16 ± 0.099
SELAGDEELEAEQIDVF [PRP8]	3.08 ± 0.2	3.19 ± 0.2	3.07 ± 0.16	2.75 ± 0.18
SELQPQNRSLQEHNIQD [SNF2]	2.81 ± 0.041	3.24 ± 0.05	3.08 ± 0.04	3.09 ± 0.038
SENEDTKDLLSKSPSEW [CSE2]	3.21 ± 0.067	3.11 ± 0.067	3.15 ± 0.051	3.19 ± 0.046
SENQRQIFCVFSGKGVH [GRR1]	2.94 ± 0.073	2.5 ± 0.065	2.62 ± 0.053	2.76 ± 0.046
SESDLDEDKNFPRSRSR [ESC2]	2.98 ± 0.087	3.24 ± 0.08	3.32 ± 0.059	3.28 ± 0.054
SEYNFLEGSVSLPRFSK [DIS3]	3.1 ± 0.078	3.18 ± 0.068	3.11 ± 0.05	3.2 ± 0.05
SFELKEEDISDLWNNFG [RRP6]	2.85 ± 0.1	3.1 ± 0.12	2.47 ± 0.091	3.26 ± 0.073
SFILYYRRALQSSESFD [YML103C/NUP188]	1.79 ± 0.055	2.11 ± 0.067	1.98 ± 0.072	2.27 ± 0.052
SFKKIIKFLLTFIDKER [YCS4]	1.16 ± 0.065	1.29 ± 0.11	1.19 ± 0.14	1.17 ± 0.066
SFLDRKRAKEFITTLLK [SIN4]	2.35 ± 0.048	2.21 ± 0.06	2.21 ± 0.061	2.08 ± 0.042
SFLGEAKSMAFLKEVLS [YML103C/NUP188]	–	–	2.48 ± 0.18	2.54 ± 0.21
SFLMRQFTRFFLLVPSK [ECM29]	2.03 ± 0.067	2.03 ± 0.057	1.75 ± 0.12	2.31 ± 0.05
SFNESQRGEDDLTFKLA [RPO21]	–	–	3.54 ± 0.15	1.09 ± 0.14
SFTQGELNDLKWGRNQP [YMR129W/POM152]	3.04 ± 0.15	2.84 ± 0.09	3.14 ± 0.091	2.78 ± 0.074
SFTSQGTISIQLKNGLL [MTR3]	2.66 ± 0.05	2.67 ± 0.047	2.69 ± 0.055	2.61 ± 0.032
SFVGDYMHDTELNYFVG [GRR1]	3.1 ± 0.068	3.04 ± 0.09	3.35 ± 0.061	3.22 ± 0.067
SGDKEATAPLIQRKNKK [RPN8]	3.39 ± 0.2	3.35 ± 0.14	3.25 ± 0.095	–
SGDREVQRTMLELLNQL [RPT5]	3.28 ± 0.12	2.73 ± 0.28	3.12 ± 0.12	3.21 ± 0.1
SGELLQGIVRVYSKQAT [MCD1]	1.82 ± 0.047	2.17 ± 0.056	2.22 ± 0.058	1.76 ± 0.049
SGGWGVPRKFKHFIQGG [RPL7A]	–	3.23 ± 0.18	–	–
